In paper PMC8891189, “Hydroxycinnamoyltransferase and CYP98 in phenolic metabolism in the rosmarinic acid-producing hornwort Anthoceros agrestis” (Planta, 2022):

Tests used:
[1] = substrate: O=C(O)C1=C[C@@H](O)[C@@H](O)[C@H](O)C1; assay: cells, lysate or membranes; details: co-substrate p-coumaroyl-CoA, pH 7.0, 30 °C, crude extract
[2] = substrate: CC(C)(COP(=O)(O)OP(=O)(O)OC[C@H]1O[C@@H](n2cnc3c(N)ncnc32)[C@H](O)[C@@H]1OP(=O)(O)O)[C@@H](O)C(=O)NCCC(=O)NCCSC(=O)/C=C/c1ccc(O)c(O)c1; assay: HPLC product assay, Michaelis-Menten fit; format: biochemical, Anthoceros agrestis; details: co-substrate shikimic acid, pH 7.0, 30 °C, crude extract, pH 7.0
[3] = substrate: CC(C)(COP(=O)(O)OP(=O)(O)OC[C@H]1O[C@@H](n2cnc3c(N)ncnc32)[C@H](O)[C@@H]1OP(=O)(O)O)[C@@H](O)C(=O)NCCC(=O)NCCSC(=O)/C=C/c1ccc(O)cc1; assay: HPLC product assay, Michaelis-Menten fit; format: biochemical, Anthoceros agrestis; details: co-substrate shikimic acid, pH 7.0, 30 °C, crude extract, pH 7.0
[4] = substrate: Nc1c(O)cccc1C(=O)O; assay: HPLC product assay, Michaelis-Menten fit; format: biochemical, Anthoceros agrestis; details: co-substrate p-coumaroyl-CoA, pH 9.0, 30 °C, crude extract, amide formed, pH 9.0
[5] = substrate: O=C(O)c1cccc(O)c1O; assay: HPLC product assay, Michaelis-Menten fit; format: biochemical, Anthoceros agrestis; details: co-substrate p-coumaroyl-CoA, 30 °C, crude extract, ester formed
[6] = substrate: O=C(/C=C/c1ccc(O)cc1)NCCc1ccc(O)cc1; assay: HPLC product assay, Michaelis-Menten fit; format: biochemical, Anthoceros agrestis; details: co-substrate NADPH, with Coleus blumei CPR, pH 7.0, 30 °C, crude extract
[7] = substrate: O=C(/C=C/c1ccc(O)cc1)Nc1c(O)cccc1C(=O)O; assay: HPLC product assay, Michaelis-Menten fit; format: biochemical, Anthoceros agrestis; details: co-substrate NADPH, with Coleus blumei CPR, pH 7.0, 30 °C, crude extract
[8] = substrate: O=C(/C=C/c1ccc(O)cc1)Nc1ccccc1C(=O)O; assay: HPLC product assay, Michaelis-Menten fit; format: biochemical, Anthoceros agrestis; details: co-substrate NADPH, with Coleus blumei CPR, pH 7.0, 30 °C, crude extract

B1: AaHCT6 (Anthoceros agrestis) (protein)
chain: MKVSIKKETMVPPAEETPQVALWASNVDLIIPQIHTSSVYFYRPSGSPDFFSGDVLRDALAKALVPFYPMAGRLARDQDGRIQINCNAAGVLLVEAEADVSIDDLGGFAPHPVLQQLVPTVVYTKDITAFPLLVLQVTRFKCGGASLGVGMEHHIADGTSGIHFINTWSDVARGEGVKVLPFVDRTLLRARSPPTPQFEHVEYQTPFTLQPRFRPEEGSEKVETVVESFTFSREQLGKLKAMVADPGANLAYSSYVALSAHIWRCATRARGLSGDQPSKLFVATDGRARLRPPLPRGYFGNVIFTCTPVAEAEELVAKPLIRTAARIQEAVLKMGDEYLRSALDYLELLPDMSVCIRGAAHFGNPNLCITSWSGLPVYDCDFGWGRAIHMGPCQIGFEGLCFVLGSATKDGSLGLALRLRADHMADFRKLVNDI
- Km [1]: 24.6 ± 10.4 µM
- Km [2]: 19.2 ± 16.2 µM
- Km [3]: 14.4 ± 1.4 µM
- Km [4]: 153.1 ± 33.8 µM
- Km [5]: 1025.9 ± 59.7 µM

B2: AaCYP98 (CYP98A147; coAaCYP98 + CbCPR) (Anthoceros agrestis) (protein)
chain: MAELVVRAVLALIAVAVAAGFLFYRARWSRYKLPPGPKPRLFVGNLLDVTAVRFKCFEQWAKVYGPVMSVWMGATLNVVVSSAEGAKEVLKDKDQSLAARARSRAAAKFSRDGQDLIWADYGPHYVKVRKVCNVELFTPKRLEALRPIRQDEVSAMVHKIHRDAPKGPVNPKKYLSAMAFNNITRLAFGKRFVDDEGKIDSQGVEFKEVIGQGMKLGASLKISEHIPSIRWMFPLQNEEFAKHGARRDTLTRTIMKEHAALRETLGPQSHFVDALLGLQKQYDLSETTIIGLLWDMVTAGMDTVAITVEWALAELIRNPEVQRKAQEELDAVVGDETVLTEAHFSKLPYLTALTKESLRLHPPTPLMLPHKCTEDVKIQGYDIPKGTVVHCNIYVIARDPAVWKEPLAFRPERFLEQDVDIKGHDFRLLPFGAGRRVCPGAQLGLNMVQLMIGRLLHQFSWSPPEGVRAEDISLEERSGIVTYMAKSLEAVATPRLPQALYARNV
notes: with NADPH--cytochrome P450 reductase (Coleus blumei)
- Km [6]: 36.3 ± 3.6 µM
- Km [7]: 9.3 ± 0.7 µM
- Km [8]: 6.4 ± 0.8 µM
